Experiments:
[1] = system: AncSZ; test: phosphorylation enrichment, bacterial display (enrichment ratio); higher = better substrate or ligand; peptides without Tyr show the background
[2] = molecular target: EPHB1 (UniProt P54762); test: as above
[3] = molecular target: EPHB2 (UniProt P29323); test: as above
[4] = molecular target: FGFR1 (UniProt P11362); test: as above
[5] = molecular target: FGFR3 (UniProt P22607); test: as above
[6] = system: Fer (mouse); test: as above
[7] = molecular target: Fes (UniProt P07332); test: as above
[8] = molecular target: Fyn (UniProt P06241); test: as above
[9] = molecular target: Hck (UniProt P08631); test: as above
[10] = molecular target: Jak2 (UniProt O60674); test: as above
[11] = molecular target: MERTK (UniProt Q12866); test: as above
[12] = system: c-Abl (mouse); test: as above
[13] = system: c-Src; test: as above
[14] = molecular target: Grb2 SH2 (UniProt P62993); test: SH2 binding enrichment of the phosphorylated peptide, bacterial display (enrichment ratio); higher = better substrate or ligand; peptides without Tyr show the background
[15] = molecular target: SHP2-C SH2; test: as above
[16] = molecular target: c-Src SH2; test: as above
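Wherever SH2 binding enrichment of the phosphorylated peptide, bacterial display is given: peptide library displayed on the E. coli surface as eCPX fusions, selected cells deep-sequenced, score is each peptide's frequency after selection divided by its frequency in the input.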
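Wherever phosphorylation enrichment, bacterial display is given: 11-residue human phosphosite peptides and single-mutation variants displayed on the E. coli surface, counted by deep sequencing, each peptide's frequency after selection divided by its frequency in the unselected input library; frequency after pTyr selection over input frequency; kinase dosed for 20-30% of maximal phosphorylation in three min.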

Sequence of MERTK (Q12866 whole entry, looked up): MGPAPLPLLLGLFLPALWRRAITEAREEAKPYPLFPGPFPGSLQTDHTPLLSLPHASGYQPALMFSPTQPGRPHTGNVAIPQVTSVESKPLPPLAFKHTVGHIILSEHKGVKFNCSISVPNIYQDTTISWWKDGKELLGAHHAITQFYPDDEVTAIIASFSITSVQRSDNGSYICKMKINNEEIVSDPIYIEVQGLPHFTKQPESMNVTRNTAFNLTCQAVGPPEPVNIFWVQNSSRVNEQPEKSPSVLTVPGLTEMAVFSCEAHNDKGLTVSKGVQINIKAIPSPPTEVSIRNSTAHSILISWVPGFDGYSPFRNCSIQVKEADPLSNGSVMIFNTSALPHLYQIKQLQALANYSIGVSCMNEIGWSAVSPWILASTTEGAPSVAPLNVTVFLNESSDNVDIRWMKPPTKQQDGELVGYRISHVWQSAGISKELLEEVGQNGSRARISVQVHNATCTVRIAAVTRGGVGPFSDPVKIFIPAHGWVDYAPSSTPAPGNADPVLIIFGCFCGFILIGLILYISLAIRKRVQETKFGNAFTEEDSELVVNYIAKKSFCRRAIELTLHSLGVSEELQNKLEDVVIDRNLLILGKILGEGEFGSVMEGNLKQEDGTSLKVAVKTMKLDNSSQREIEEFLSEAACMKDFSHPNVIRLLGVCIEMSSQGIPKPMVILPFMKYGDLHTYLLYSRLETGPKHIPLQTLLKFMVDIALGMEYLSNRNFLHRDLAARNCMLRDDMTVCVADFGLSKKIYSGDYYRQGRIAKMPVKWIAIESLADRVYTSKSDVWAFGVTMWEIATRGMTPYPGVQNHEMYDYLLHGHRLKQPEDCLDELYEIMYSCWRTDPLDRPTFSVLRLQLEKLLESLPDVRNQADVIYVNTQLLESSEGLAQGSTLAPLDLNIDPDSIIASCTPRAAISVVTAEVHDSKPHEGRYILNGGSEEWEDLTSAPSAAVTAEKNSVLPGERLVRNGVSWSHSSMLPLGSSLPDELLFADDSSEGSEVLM
Sequence of Fes (P07332 whole entry, looked up): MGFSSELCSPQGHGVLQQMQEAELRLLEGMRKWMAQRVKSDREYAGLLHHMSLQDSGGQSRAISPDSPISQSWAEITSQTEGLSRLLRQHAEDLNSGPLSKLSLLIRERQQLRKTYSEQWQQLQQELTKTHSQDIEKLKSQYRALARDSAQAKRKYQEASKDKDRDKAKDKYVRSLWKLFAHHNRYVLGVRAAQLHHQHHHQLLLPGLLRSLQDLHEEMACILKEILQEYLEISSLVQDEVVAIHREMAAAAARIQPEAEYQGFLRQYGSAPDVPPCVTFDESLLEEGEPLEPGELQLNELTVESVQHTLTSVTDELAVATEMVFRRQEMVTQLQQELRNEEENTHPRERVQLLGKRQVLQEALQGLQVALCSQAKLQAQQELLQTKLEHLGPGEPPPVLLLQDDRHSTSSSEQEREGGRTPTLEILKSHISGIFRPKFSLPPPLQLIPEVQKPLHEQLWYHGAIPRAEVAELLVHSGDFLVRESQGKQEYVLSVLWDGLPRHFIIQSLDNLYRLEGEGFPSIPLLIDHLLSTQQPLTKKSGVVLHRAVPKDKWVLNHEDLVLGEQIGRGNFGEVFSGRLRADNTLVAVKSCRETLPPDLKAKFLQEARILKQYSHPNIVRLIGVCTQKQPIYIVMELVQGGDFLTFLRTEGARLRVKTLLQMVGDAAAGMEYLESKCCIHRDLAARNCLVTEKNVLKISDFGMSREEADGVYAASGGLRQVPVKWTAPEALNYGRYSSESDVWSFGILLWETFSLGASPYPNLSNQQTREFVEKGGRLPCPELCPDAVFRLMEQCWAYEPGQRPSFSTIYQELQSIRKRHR
Sequence of Grb2 SH2 (P62993 whole entry, looked up): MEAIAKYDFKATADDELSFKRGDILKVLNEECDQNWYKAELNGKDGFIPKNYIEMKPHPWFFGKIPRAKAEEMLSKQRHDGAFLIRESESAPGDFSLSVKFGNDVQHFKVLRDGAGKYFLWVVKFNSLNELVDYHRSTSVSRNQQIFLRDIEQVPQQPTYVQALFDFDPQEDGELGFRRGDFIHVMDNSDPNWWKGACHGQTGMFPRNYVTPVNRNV
Sequence of FGFR3 (P22607 whole entry, looked up): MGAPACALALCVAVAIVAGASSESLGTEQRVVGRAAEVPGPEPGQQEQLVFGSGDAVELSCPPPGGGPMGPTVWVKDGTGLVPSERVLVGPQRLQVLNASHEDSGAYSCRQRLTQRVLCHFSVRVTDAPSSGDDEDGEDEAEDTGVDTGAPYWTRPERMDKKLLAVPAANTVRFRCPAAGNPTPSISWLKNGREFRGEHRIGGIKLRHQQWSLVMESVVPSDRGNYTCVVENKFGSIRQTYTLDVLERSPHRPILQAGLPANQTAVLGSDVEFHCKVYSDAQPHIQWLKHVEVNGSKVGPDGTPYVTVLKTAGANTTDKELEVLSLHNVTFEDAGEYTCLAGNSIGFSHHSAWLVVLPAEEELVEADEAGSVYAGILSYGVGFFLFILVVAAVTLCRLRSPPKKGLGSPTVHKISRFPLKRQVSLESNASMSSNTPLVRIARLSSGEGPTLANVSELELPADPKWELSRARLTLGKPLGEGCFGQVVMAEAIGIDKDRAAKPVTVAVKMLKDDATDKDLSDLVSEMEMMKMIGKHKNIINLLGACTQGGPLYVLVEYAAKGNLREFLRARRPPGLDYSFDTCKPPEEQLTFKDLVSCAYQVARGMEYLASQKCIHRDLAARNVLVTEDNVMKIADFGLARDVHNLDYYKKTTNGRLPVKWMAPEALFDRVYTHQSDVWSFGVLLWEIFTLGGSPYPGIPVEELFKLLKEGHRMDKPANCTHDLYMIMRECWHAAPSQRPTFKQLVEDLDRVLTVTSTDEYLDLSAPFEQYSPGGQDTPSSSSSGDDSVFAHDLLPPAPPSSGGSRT
Sequence of EPHB1 (P54762 whole entry, looked up): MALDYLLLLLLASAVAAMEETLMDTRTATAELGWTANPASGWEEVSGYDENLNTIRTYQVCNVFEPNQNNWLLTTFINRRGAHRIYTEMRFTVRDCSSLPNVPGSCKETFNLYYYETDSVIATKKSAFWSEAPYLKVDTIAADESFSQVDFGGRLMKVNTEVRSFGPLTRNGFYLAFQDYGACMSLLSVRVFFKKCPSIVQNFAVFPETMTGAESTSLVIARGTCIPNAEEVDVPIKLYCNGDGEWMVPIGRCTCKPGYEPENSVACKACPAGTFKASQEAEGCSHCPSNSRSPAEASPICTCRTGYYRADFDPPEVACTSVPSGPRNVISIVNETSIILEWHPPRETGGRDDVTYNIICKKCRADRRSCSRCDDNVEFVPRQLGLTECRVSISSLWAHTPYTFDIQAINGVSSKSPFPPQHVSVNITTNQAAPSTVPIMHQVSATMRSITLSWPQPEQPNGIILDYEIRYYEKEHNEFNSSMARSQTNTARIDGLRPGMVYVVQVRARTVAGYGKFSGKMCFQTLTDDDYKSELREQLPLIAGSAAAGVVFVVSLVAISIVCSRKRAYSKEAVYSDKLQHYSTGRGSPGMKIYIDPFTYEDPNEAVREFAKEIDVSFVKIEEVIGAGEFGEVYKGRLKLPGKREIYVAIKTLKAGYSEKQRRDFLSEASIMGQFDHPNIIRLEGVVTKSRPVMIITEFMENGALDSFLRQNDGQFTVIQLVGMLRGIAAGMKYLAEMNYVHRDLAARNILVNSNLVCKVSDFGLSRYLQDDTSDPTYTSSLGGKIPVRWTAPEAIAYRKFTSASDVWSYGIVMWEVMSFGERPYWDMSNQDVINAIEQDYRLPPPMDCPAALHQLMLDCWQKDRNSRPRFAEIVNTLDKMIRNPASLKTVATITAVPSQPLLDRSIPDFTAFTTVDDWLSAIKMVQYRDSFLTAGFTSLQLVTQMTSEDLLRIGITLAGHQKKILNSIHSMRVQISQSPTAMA
Sequence of FGFR1 (P11362 whole entry, looked up): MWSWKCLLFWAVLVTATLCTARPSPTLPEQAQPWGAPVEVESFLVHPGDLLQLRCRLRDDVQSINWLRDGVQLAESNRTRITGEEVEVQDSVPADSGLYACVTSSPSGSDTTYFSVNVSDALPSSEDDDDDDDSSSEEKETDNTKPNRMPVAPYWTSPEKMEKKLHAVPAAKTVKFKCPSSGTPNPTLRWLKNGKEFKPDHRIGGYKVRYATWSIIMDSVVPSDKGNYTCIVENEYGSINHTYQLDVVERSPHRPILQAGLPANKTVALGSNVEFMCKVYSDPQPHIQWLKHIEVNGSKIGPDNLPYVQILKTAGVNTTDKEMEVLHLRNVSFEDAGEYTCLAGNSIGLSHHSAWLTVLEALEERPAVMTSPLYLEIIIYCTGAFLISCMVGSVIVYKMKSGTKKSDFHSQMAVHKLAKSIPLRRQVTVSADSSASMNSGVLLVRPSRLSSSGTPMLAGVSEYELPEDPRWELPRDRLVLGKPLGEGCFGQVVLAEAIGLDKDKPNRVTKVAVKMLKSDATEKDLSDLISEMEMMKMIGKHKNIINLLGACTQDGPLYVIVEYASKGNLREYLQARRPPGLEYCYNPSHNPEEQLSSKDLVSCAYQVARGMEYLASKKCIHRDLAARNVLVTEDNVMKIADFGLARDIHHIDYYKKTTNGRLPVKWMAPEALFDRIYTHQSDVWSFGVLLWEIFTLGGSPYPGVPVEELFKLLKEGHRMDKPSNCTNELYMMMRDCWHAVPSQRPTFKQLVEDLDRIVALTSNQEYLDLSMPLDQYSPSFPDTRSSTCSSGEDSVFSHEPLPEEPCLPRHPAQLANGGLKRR

Sequence	phosphorylation enrichment [1]	phosphorylation enrichment [2]	phosphorylation enrichment [3]	phosphorylation enrichment [4]	phosphorylation enrichment [5]	phosphorylation enrichment [6]	phosphorylation enrichment [7]	phosphorylation enrichment [8]	phosphorylation enrichment [9]	phosphorylation enrichment [10]	phosphorylation enrichment [11]	phosphorylation enrichment [12]	phosphorylation enrichment [13]	SH2 binding enrichment [14]	SH2 binding enrichment [15]	SH2 binding enrichment [16]
ESMNTYLQTSP [NAT1_Y208]	1	0.584	0.511	0.584	0.664	0.539	0.947	0.469	0.655	0.825	0.412	0.693	0.477	0.642	0.795	0.471
ETELPYQELQG [TYROBP_Y91_S89L]	1.58	0.535	0.58	1.65	1.5	0.997	1.18	0.737	0.941	1.02	0.566	0.872	2.5	0.727	0.504	0.84
EVKEAYMGSVL [ACAT1_Y90_N93S]	0.841	0.485	0.532	0.407	0.527	0.398	0.995	0.489	0.447	0.83	0.463	0.744	0.592	0.883	0.671	0.452
EWLRRYLENGK [HLA-A_Y195]	0.691	0.386	0.456	0.42	0.498	0.36	0.809	0.346	0.387	0.661	0.328	0.581	0.346	0.932	0.757	0.522
EWRSPYGLTPR [GRIN3B_Y601]	0.569	0.413	0.473	0.403	0.442	0.434	0.636	0.657	0.474	0.459	0.484	0.486	1.28	1.3	0.766	0.645
EYFDGYWGYSV [ITGA2B_Y265]	3.58	3.88	9.3	14.6	13.7	1.4	1.42	6.24	5.55	12.3	2.87	4.7	7.52	0.999	0.578	1.94
EYKDAYKFAAD [BRDT_Y335]	0.984	0.59	0.553	0.511	0.632	0.559	1.14	0.499	0.542	0.722	0.475	0.666	0.495	0.861	0.572	0.864
FADIAYIFRHG [PAH_Y166_N167I_YF]	0.908	0.715	0.487	0.637	0.626	0.507	1.03	0.508	0.449	0.97	0.458	0.579	0.415	0.756	0.796	0.659
FADIAYSFRHG [PAH_Y166_N167S_YF]	0.62	0.344	0.383	0.313	0.491	0.393	0.674	0.443	0.44	0.422	0.33	0.463	0.64	0.749	1.15	0.673
FCRHNYGAVES [HLA-DRB1_Y112_V114A_YF]	0.628	0.674	0.555	0.471	0.604	0.42	0.826	0.359	0.441	0.856	0.439	0.83	0.527	1	0.816	1.05
FDDDDYDMDFV [BLM_Y296_T298M]	1.29	0.761	0.612	0.55	0.815	0.561	1.23	0.613	0.56	0.945	0.438	0.68	0.57	0.795	0.606	0.485
FDKEFYSVHNK [MET_Y1235_YF]	0.806	0.432	0.638	0.528	0.717	0.561	0.947	0.479	0.803	0.866	0.721	0.959	0.641	0.917	0.841	0.543
FDKPVYQKTTE [LDLR_Y828_N825K]	0.684	0.452	0.475	0.518	0.57	0.451	0.739	0.472	0.436	0.691	0.473	0.606	0.506	0.811	0.557	0.563
FEDALYTVLHR [UNC13D_Y61_YF]	2.96	16	13.8	2.49	2.38	11.4	1.79	9.12	9.35	1.4	9.68	5.92	7.03	0.85	0.812	0.521
FEEVVYQAMEE [TACC3_Y684]	1.86	0.838	0.737	0.621	0.955	1.21	1.54	2.12	1.74	1.35	0.744	1.62	3.34	0.755	0.883	0.504
FENGEYIVRQG [PRKG1_Y247_I249V_YF]	0.888	0.612	0.641	0.437	0.922	0.523	0.962	0.468	0.551	0.685	0.39	0.646	0.43	1.06	0.552	0.637

From the supplement of paper PMC10065799, “High-throughput profiling of sequence recognition by tyrosine kinases and SH2 domains using bacterial peptide display” (eLife, 2023)
